Test results: US20060088531A1 (CAMBRIDGE ENTERPRISE, published 2006)

Experiments:
[1] = target: T1, hD1D2-CaM (human, UniProt Q9HCN6 21-205; P0DP23 2-149, limits assumed); assay: resonant mirror biosensor, Cell 1
T1 construct: Residues are counted on mature GPVI, not on the precursor; also called rGPVI; recombinant GPVI

[2] = target: T1, hD1D2-CaM; assay: resonant mirror biosensor, from response ratio against ratio of molecular masses
[3] = target: T2, hD1-CaM (human, UniProt Q9HCN6 21-109; P0DP23 2-149, limits assumed); assay: screening ELISA
T2 construct: Residues counted on mature GPVI; also called isolated hD1

[4] = target: T3, mD1D2-CaM (murine, UniProt P0C191 22-206; P0DP23 2-149, limits assumed); assay: capture ELISA, purified scFv
T3 construct: Residues counted from Q1 (mature protein); also called murine D1D2; mouse D1D2-CaM

Row | ratio of responses 1C3: D1D2-CaM [1] | binding ratio (scFv to hD1D2) [2] | binding result [3] | ratio of responses 10B12: D1D2-CaM [1] | binding result [4] | Binder
1 | 0.63 | 1 | no binding |  |  | scFv 1C3 (scFv, V domains shown, Human scFv from the Marks library; also called 1C3 scFv) VH: QVQLQQSGAEVKKPGESLKISCQASGYSFSSYWIAWVRQMPGKGLELMGIIYPGDSDARYSPSFQGQVTFSADKSINTAYLQWSSLKASDTAMYYCARQGKTGSYYFGAFDVWGQGTMVTVSS VL: QSVLTQPPSMSAAPGQKVTISCTGTSSDVGGYNYVSWYQQHPGKAPKLMLFEVSHRPSGVSNRFSGSKSDNTASLTISGLQAEDEADYYCSSYTGSSTWVFGGGTKVTVL
2 |  | 1 |  | 0.61 | no binding (tested: 10 µg/ml) | scFv 10B12 (scFv, V domains shown, Human scFv from the CaT (Vaughan) library; also called 10B12 scFv) VH: EVQLVQSGGGVVQPGGSLRLSCAASGFTFSSYGMHWVRQAPGKGLEWVAFIRYDGSNKYYADSVKGRFTISRDNSKNTLYLQMNSLRAEDTAVYYCTDGWAEMATTDDAFDIWGRGTMVTV VL: DIQMTQSPSTLSASIGDRVTITCRASEGIYHWLAWYQQKPGKAPKLLIYKASSLASGAPSRFSGSGSGTDFTLTISSLQPDDFATYYCQQYSNYPLTFGGGTKLEIK
